This is an account of results in patent US20240400697A1 (NATIONAL RESEARCH COUNCIL OF CANADA, published 2024).

The target of test [1] is epidermal growth factor receptor variant III (EGFRvIII) (human) (UniProt P00533). Kind of test: flow cytometry on U87MG-EGFRvIII cells, apparent KD (KD-app), mean of several experiments.
Test [2] addresses T1, wild-type epidermal growth factor receptor (EGFR wt) (human, UniProt P00533 25-1210).
T1 construct: whole, on cells; also called wt EGFR; WT EGFR
Kind of test: flow cytometry on U87MG-EGFR wt cells. The procedure: Cells overexpressing full length wt EGFR or EGFRvIII were obtained from the laboratory of W. Cavanee (Ludwig Institute for Cancer Research, University of California at San Diego). Cells were grown in DMEM high glucose medium containing 10% FBS and 400 μg/ml G418.
Prior to analysis, cells were plated such that they were not more than 80% confluent on the day of analysis. Unless otherwise stated, all media are kept are 4° C. and all incubations are performed on wet ice. Cells were washed in PBS, harvested by the addition of cell dissociation buffer (Sigma), centrifuged and resuspended in complete medium at a cell density of 2×10⁶ cells/mL. […] Cells were washed twice by centrifugation and further incubated with a FITC labeled F(ab′)₂ goat anti-mouse antibody (Fc specific, #115-096-071, Jackson Immunoresearch, Cedarlane) for an hour. Cells were washed and re-suspended in medium containing Propidium iodide to exclude dead cells from analysis. Samples were filtered through a 60 μm nylon mesh filter plate (Millipore) to remove cell aggregates. Flow cytometry analyses were performed on 2,000 viable single-cells events gated on forward scattering, side scattering parameters and propidium iodide dye exclusion using a BD-LSRFortessa flow cytometer (Becton-Dickinson Biosciences) and a standard filter set using BD FACSDiva™ acquisition software, according to manufacturer's instructions.
A general note: Flow cytometry measures light scatter and fluorescence of single cells or particles in a stream.

B1: humanized 4E11 antibody hH2-hL2 (antibody, human IgG4 S228P, kappa, V domains shown)
VH: QVQLQESGPGLVKPSQTLSLTCTVSGYSITSDYAWNWIRQPPGKGLEWIGYIGYNGRTSYNPSLKSRVTISRDTSKNQFSLKLSSVTAADTAVYYCARLGRGFAYWGQGTLVTVSS
VL: DIQMTQSPSSLSASVGDRVTITCHASQGINSNIGWLQQKPGKAPKGLIYHGTNLEDGVPSRFSGSGSGTDYTLTISSLQPEDFATYYCVQYAQFPYTFGQGTKLEIKR
On to B1, for which the Kd in test [1] turned out to be 10.5 nM.

B2: humanized 4E11 antibody hH1-hL1 (antibody, human IgG4 S228P, kappa, V domains shown)
VH: QVQLQESGPGLVKPSQTLSLTCTVSGYSITSDYAWNWIRQPPGKGLEWIGYIGYNGRTSYNPSLKSRVTISVDTSKNQFSLKLSSVTAADTAVYYCARLGRGFAYWGQGTLVTVSS
VL: DIQMTQSPSSLSASVGDRVTITCHASQGINSNIGWYQQKPGKAPKLLIYHGTNLEDGVPSRFSGSGSGTDYTLTISSLQPEDFATYYCVQYAQFPYTFGQGTKLEIKR
With B2, the Kd in test [1] was 9.7 nM.

B3: humanized 4E11 antibody hH3-hL2 (antibody, human IgG4 S228P, kappa, V domains shown)
VH: QVQLQESGPGLVKPSQTLSLTCTVSGYSITSDYAWNWIRQPPGKGLEWMGYIGYNGRTSYNPSLKSRITISRDTSKNQFSLKLSSVTAADTAVYYCARLGRGFAYWGQGTLVTVSS
VL: DIQMTQSPSSLSASVGDRVTITCHASQGINSNIGWLQQKPGKAPKGLIYHGTNLEDGVPSRFSGSGSGTDYTLTISSLQPEDFATYYCVQYAQFPYTFGQGTKLEIKR
notes: Human IgG4(S228P), C-terminal Lys deleted, human kappa; made in CHO cells; 16) for this name; 17
As to B3, in test [2], the “Bmax @ 300 nM (MFI)” value was 160 MFI. The Kd in test [1] was 7.9 nM.

B4: humanized 4E11 antibody hH1-hL2 (antibody, human IgG4 S228P, kappa, V domains shown)
VH: QVQLQESGPGLVKPSQTLSLTCTVSGYSITSDYAWNWIRQPPGKGLEWIGYIGYNGRTSYNPSLKSRVTISVDTSKNQFSLKLSSVTAADTAVYYCARLGRGFAYWGQGTLVTVSS
VL: DIQMTQSPSSLSASVGDRVTITCHASQGINSNIGWLQQKPGKAPKGLIYHGTNLEDGVPSRFSGSGSGTDYTLTISSLQPEDFATYYCVQYAQFPYTFGQGTKLEIKR
B4: the Kd in test [1] turned out to be 23 nM.

B5: humanized 4E11 antibody hH1-hL3 (antibody, human IgG4 S228P, kappa, V domains shown)
VH: QVQLQESGPGLVKPSQTLSLTCTVSGYSITSDYAWNWIRQPPGKGLEWIGYIGYNGRTSYNPSLKSRVTISVDTSKNQFSLKLSSVTAADTAVYYCARLGRGFAYWGQGTLVTVSS
VL: DIQMTQSPSSLSASVGDRVTITCHASQGINSNIGWLQQKPGKAFKGLIYHGTNLEDGVPSRFSGSGSGTDYTLTISSLQPEDFATYYCVQYAQFPYTFGQGTKLEIKR
Regarding B5, the Kd in test [1] was found to be 15.7 nM.

B6: humanized 4E11 antibody hH2-hL1 (antibody, human IgG4 S228P, kappa, V domains shown)
VH: QVQLQESGPGLVKPSQTLSLTCTVSGYSITSDYAWNWIRQPPGKGLEWIGYIGYNGRTSYNPSLKSRVTISRDTSKNQFSLKLSSVTAADTAVYYCARLGRGFAYWGQGTLVTVSS
VL: DIQMTQSPSSLSASVGDRVTITCHASQGINSNIGWYQQKPGKAPKLLIYHGTNLEDGVPSRFSGSGSGTDYTLTISSLQPEDFATYYCVQYAQFPYTFGQGTKLEIKR
notes: Human IgG4(S228P), C-terminal Lys deleted, human kappa; made in CHO cells; 16) for this name; 16
Regarding B6, the “Bmax @ 300 nM (MFI)” value in test [2] came out at 319 MFI. Also, the Kd in test [1] was determined as 5.8 nM.

B7: humanized 4E11 antibody hH2-hL3 (antibody, human IgG4 S228P, kappa, V domains shown)
VH: QVQLQESGPGLVKPSQTLSLTCTVSGYSITSDYAWNWIRQPPGKGLEWIGYIGYNGRTSYNPSLKSRVTISRDTSKNQFSLKLSSVTAADTAVYYCARLGRGFAYWGQGTLVTVSS
VL: DIQMTQSPSSLSASVGDRVTITCHASQGINSNIGWLQQKPGKAFKGLIYHGTNLEDGVPSRFSGSGSGTDYTLTISSLQPEDFATYYCVQYAQFPYTFGQGTKLEIKR
notes: Human IgG4(S228P), C-terminal Lys deleted, human kappa; made in CHO cells; 17) for this name; 18
Consider B7, for which, in test [2], the “Bmax @ 300 nM (MFI)” value was determined as 1420 MFI. The Kd in test [1] amounted to 7.2 nM.

B8: humanized 4E11 antibody hH3-hL3 (antibody, human IgG4 S228P, kappa, V domains shown)
VH: QVQLQESGPGLVKPSQTLSLTCTVSGYSITSDYAWNWIRQPPGKGLEWMGYIGYNGRTSYNPSLKSRITISRDTSKNQFSLKLSSVTAADTAVYYCARLGRGFAYWGQGTLVTVSS
VL: DIQMTQSPSSLSASVGDRVTITCHASQGINSNIGWLQQKPGKAFKGLIYHGTNLEDGVPSRFSGSGSGTDYTLTISSLQPEDFATYYCVQYAQFPYTFGQGTKLEIKR
notes: as for B7
Take B8: in test [2], the “Bmax @ 300 nM (MFI)” value worked out at 1370 MFI. For the same molecule, the Kd in test [1] was found to be 7.1 nM.

B9: humanized 4E11 antibody hH3-hL1 (antibody, human IgG4 S228P, kappa, V domains shown)
VH: QVQLQESGPGLVKPSQTLSLTCTVSGYSITSDYAWNWIRQPPGKGLEWMGYIGYNGRTSYNPSLKSRITISRDTSKNQFSLKLSSVTAADTAVYYCARLGRGFAYWGQGTLVTVSS
VL: DIQMTQSPSSLSASVGDRVTITCHASQGINSNIGWYQQKPGKAPKLLIYHGTNLEDGVPSRFSGSGSGTDYTLTISSLQPEDFATYYCVQYAQFPYTFGQGTKLEIKR
notes: Human IgG4(S228P), C-terminal Lys deleted, human kappa; made in CHO cells; 18) for this name; 16
With B9, in test [2], the “Bmax @ 300 nM (MFI)” value turned out to be 164 MFI. In test [1], the Kd was 4.9 nM.

B10: chimeric 4E11 antibody cH-cL (antibody, human IgG4 S228P, kappa, V domains shown)
VH: DVQLQESGPGLVKPSQSLSLTCTVTGYSITSDYAWNWIRQFPGNKLEWMGYIGYNGRTSYNPSLKSRISITRDTSKNQFFLQLNYVTTEDTATFYCARLGRGFAYWGQGTLVTVSA
VL: DILMTQSPSSMSVSLGDTVSITCHASQGINSNIGWLLQKPGKSFKGLIYHGTNLEDGVPSRFSGSGSGTDYSLTISSLESEDFADYYCVQYAQFPYTFGGGTKLEIKR
notes: Murine 4E11 V regions on human IgG4(S228P) heavy chain, C-terminal Lys deleted, and human kappa light chain; made in CHO cells; also called chimeric variant
As to B10, in test [2], the “Bmax @ 300 nM (MFI)” value stood at 525 MFI.
